Reference: article PMC7924340 (Toxins, 2021)

Legend:
[1] = biological target: Acetylcholine binding protein from Aplysia californica (Aplysia californica); experiment: radioligand binding
[2] = biological target: T1, Acetylcholine binding protein from Lymnaea stagnalis (Lymnaea stagnalis, UniProt P58154 20-229); experiment: radioligand binding; conditions: both partners purified
T1 construct: also called AChBP L. stagnalis; L. stagnalis AChBP

Row | Molecule | IC50 [1] | IC50 [2]
1 | α-Cobratoxin from cobra Naja kaouthia venom (from UniProt P01391 1-71) (natural protein) | 385 nM | 
2 | α-Cobratoxin from cobra Naja kaouthia venom (natural protein) IRCFITPDITSKDCPNGHVCYTKTWCDAFCSIRGKRVDLGCAATCPTVKTGVDIQCCSTDNCNPFPTRKRP |  | 25.4 ± 0.8 nM
